From PMC11044105, “Overcoming Lot-to-Lot Variability in Protein Activity Using Epitope-Specific Calibration-Free Concentration Analysis” (Analytical Chemistry, 2024) come the findings set out here.

The target of this experiment is T1, ProteinA (UniProt P38507).
T1 construct: the form on the sensor is not described; Sensor-chip Protein A is probably a recombinant form; also called ProteinA sensor chip; ProteinA-CM5; source: on SPR sensor chips (ProteinA chip or ProteinA-conjugated CM5 chip)
The experiment in a line: SPR; calibration-free concentration analysis (CFCA) on Biacore T200, 1x PBST; NISTmAb 8671 as analyte over ProteinA/ProteinG sensors to assign form factors. The following applies: both partners purified.

B1: NISTmAb 8671 (antibody, V domains shown)
VH: QVTLRESGPALVKPTQTLTLTCTFSGFSLSTAGMSVGWIRQPPGKALEWLADIWWDDKKHYNPSLKDRLTISKDTSKNQVVLKVTNMDPADTATYYCARDMIFNFYFDVWGQGTTVTVSS
VL: DIQMTQSPSTLSASVGDRVTITCSASSRVGYMHWYQQKPGKAPKLLIYDTSKLASGVPSRFSGSGSGTEFTLTISSLQPDDFATYYCFQGSGYPFTFGGGTKVEIK
B1: the binding result is listed as “binds”.
